One block for each binder: values may come before it.
Experiments:
recombinant mouse sTNFR1 [1] = target: T1, recombinant mouse sTNFR1 (mouse, UniProt P25118 30-212); assay: cell-based or functional assay
T1 sequence (looked up): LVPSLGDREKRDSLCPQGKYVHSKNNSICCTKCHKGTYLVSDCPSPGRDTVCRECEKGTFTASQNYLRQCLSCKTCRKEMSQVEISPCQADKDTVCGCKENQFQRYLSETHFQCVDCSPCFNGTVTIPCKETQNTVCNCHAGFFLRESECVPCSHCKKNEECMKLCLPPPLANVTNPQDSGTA

recombinant mouse sTNFR1 [2] = target: T1, recombinant mouse sTNFR1; assay: SPR; Biacore T200, HBS-EP+, 25°C; mouse or human TNFR1 amine-coupled on CM5 chip; DMS5540 injected at 7 concentrations, 2-fold dilutions from 16 nM to 0.125 nM, 50 μl/min; 1:1 binding model; settings: both partners purified

Kd (recombinant mouse sTNFR1 [2]): 0.27 nM
koff (recombinant mouse sTNFR1 [2]): 0.000217 s⁻¹
kon (recombinant mouse sTNFR1 [2]): 798000 M⁻¹ s⁻¹
B1: DMS5540 (bispecific antibody)
chain: EVQLLESGGGLVQPGGSLRLSCAASGFTFNRYSMGWLRQAPGKGLEWVSRIDSYGRGTYYEDPVKGRFSISRDNSKNTLYLQMNSLRAEDTAVYYCAKISQFGSNAFDYWGQGTQVTVSSASTDIQMTQSPSSLSASVGDRVTITCRASRPIGTMLSWYQQKPGKAPKLLILFGSRLQSGVPSRFSGSGSGTDFTLTISSLQPEDFATYYCAQAGTHPTTFGQGTKVEIKR
notes: anti-mouse TNFR1 VH dAb DOM1m-21-23; three residue linker (Ala-Ser-Thr); About 25 kDa; two human single variable domains on one chain; also called mouse TNFR1 antagonist; genetic fusion of DOM1m-21-23 with the AlbudAb DOM7h-11-12; source: E. coli BL21(DE3) strain derivatives, purified from culture supernatant (Protein-A, cation exchange, SEC when necessary)
EC50 of inhibition of mouse TNF-α (20 pg/ml) induced cytotoxicity in mouse L929 cells (recombinant mouse sTNFR1 [1]): 1.3 nM

B2: DOM1m-21-23 (antibody, V domains shown)
VH: EVQLLESGGGLVQPGGSLRLSCAASGFTFNRYSMGWLRQAPGKGLEWVSRIDSYGRGTYYEDPVKGRFSISRDNSKNTLYLQMNSLRAEDTAVYYCAKISQFGSNAFDYWGQGTQVTVSS
EC50 of inhibition of mouse TNF-α (20 pg/ml) induced cytotoxicity in mouse L929 cells (recombinant mouse sTNFR1 [1]): 1.7 nM

— paper PMC4564187, “Pharmacokinetic and Pharmacodynamic Characterisation of an Anti-Mouse TNF Receptor 1 Domain Antibody Formatted for In Vivo Half-Life Extension” (PLoS ONE, 2015)
